This is an account of results in article PMC10713552 (Communications Biology, 2023).

What is called Kd is the constant that tells how readily two partners part at equilibrium. One may read the koff as a measure of how fast the partners let go of each other. What is called kon is the rate constant with which the complex forms. Read a high kon as fast association.

The target of assay [1] is Omicron BA.1 spike protein ectodomain (BLI) (SARS-CoV-2 Omicron BA.1, strain). Kind of assay: BLI. Background: BLI is a label-free optical method that tracks binding on a fibre tip over time.
Assay [2] has as its target D614G-Hexapro (WT) spike ectodomain (SARS-CoV-2 Wuhan-Hu-1 D614G, D614G). Nature of the assay: BLI.

B1: 0327-LN3_T65L (antibody, V domains shown)
VH: QVQLQQWGPGLVNPSETLSLTCSVSGGSFATENYYWSWIRQHPGEGLEWIGNIYFSGNLYYNPSLNNRFTISFDTSKNHLSLKLPSVTAADTAVYYCARGTIYFDLSGYRRVDPFHIWGQGTMVIVSS
VL: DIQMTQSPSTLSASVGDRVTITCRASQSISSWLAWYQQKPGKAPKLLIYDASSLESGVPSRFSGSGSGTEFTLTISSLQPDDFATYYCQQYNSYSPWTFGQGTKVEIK
notes: source: Expi293F, transfected
For B1, in assay [1], the Kd came out at 58.6 nM, the koff turned out to be 0.00147 s⁻¹ and the kon was found to be 25100 M⁻¹ s⁻¹. In assay [2], this molecule gave a Kd of 183 nM, a koff of 0.00127 s⁻¹ and a kon of 6950 M⁻¹ s⁻¹.

B2: 0329-LN3_T65N (antibody, V domains shown)
VH: QVQLQQWGPGLVNPSETLSLTCSVSGGSFATENYYWSWIRQHPGEGLEWIGNIYFSGNNYYNPSLNNRFTISFDTSKNHLSLKLPSVTAADTAVYYCARGTIYFDLSGYRRVDPFHIWGQGTMVIVSS
VL: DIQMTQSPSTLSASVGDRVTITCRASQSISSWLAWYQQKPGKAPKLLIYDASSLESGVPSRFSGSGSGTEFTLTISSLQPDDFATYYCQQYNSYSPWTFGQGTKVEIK
notes: source: Expi293F, transfected
In assay [1], B2 gave a Kd of 98.7 nM, a koff of 0.000925 s⁻¹ and an on-rate (kon) of 9380 M⁻¹ s⁻¹. In assay [2], the Kd amounted to 187 nM, the koff is 0.000519 s⁻¹ and the kon was 2780 M⁻¹ s⁻¹.

B3: 0349-MN3_T65P (antibody, V domains shown)
VH: QVQLQQWGPGLVNPSETLSLTCSVSGGSFATENYYWSWIRQHPGEGLEWIGNIYFSGNPYYNPSLNNRFTISFDTSKNHLSLKLPSVTAADTAVYYCARGTIYFDMSGYRRVDPFHIWGQGTMVIVSS
VL: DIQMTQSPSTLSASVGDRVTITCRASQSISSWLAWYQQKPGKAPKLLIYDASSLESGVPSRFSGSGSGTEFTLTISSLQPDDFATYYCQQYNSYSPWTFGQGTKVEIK
notes: source: Expi293F, transfected
In assay [1], B3 came in with a Kd of 8260 nM, a koff of 0.00219 s⁻¹ and a kon of 265 M⁻¹ s⁻¹. In addition, in assay [2], the Kd was 2.97 nM, the koff was 0.00117 s⁻¹ and the kon amounted to 392000 M⁻¹ s⁻¹.

B4: 0362-N3_T65H (antibody, V domains shown)
VH: QVQLQQWGPGLVNPSETLSLTCSVSGGSFATENYYWSWIRQHPGEGLEWIGNIYFSGNHYYNPSLNNRFTISFDTSKNHLSLKLPSVTAADTAVYYCARGTIYFDRSGYRRVDPFHIWGQGTMVIVSS
VL: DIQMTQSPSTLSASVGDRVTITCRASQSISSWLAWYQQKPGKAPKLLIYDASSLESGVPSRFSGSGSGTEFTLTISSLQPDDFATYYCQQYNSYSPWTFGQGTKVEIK
notes: source: Expi293F, transfected
In assay [1], B4 gave a Kd of 378 nM, an off-rate (koff) of 0.00114 s⁻¹ and a kon of 3020 M⁻¹ s⁻¹. In assay [2], this molecule came in with a dissociation constant Kd of 318 nM, a koff of 0.00046 s⁻¹ and a kon of 1450 M⁻¹ s⁻¹.

B5: 0351-MN3_T65R (antibody, V domains shown)
VH: QVQLQQWGPGLVNPSETLSLTCSVSGGSFATENYYWSWIRQHPGEGLEWIGNIYFSGNRYYNPSLNNRFTISFDTSKNHLSLKLPSVTAADTAVYYCARGTIYFDMSGYRRVDPFHIWGQGTMVIVSS
VL: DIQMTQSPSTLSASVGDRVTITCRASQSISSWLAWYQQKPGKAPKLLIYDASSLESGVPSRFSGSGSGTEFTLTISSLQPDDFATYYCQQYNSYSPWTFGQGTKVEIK
notes: source: Expi293F, transfected
In assay [1], B5 registered a Kd of 175 nM, a koff of 0.00187 s⁻¹ and a kon of 10700 M⁻¹ s⁻¹. In assay [2], binding was put at a Kd of 3.87 nM, the koff is 0.000806 s⁻¹ and the kon was found to be 208000 M⁻¹ s⁻¹.

B6: 0379-YN3_T65F (antibody, V domains shown)
VH: QVQLQQWGPGLVNPSETLSLTCSVSGGSFATENYYWSWIRQHPGEGLEWIGNIYFSGNFYYNPSLNNRFTISFDTSKNHLSLKLPSVTAADTAVYYCARGTIYFDYSGYRRVDPFHIWGQGTMVIVSS
VL: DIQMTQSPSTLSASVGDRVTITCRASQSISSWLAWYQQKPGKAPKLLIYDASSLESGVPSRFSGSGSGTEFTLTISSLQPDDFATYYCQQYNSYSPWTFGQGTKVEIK
notes: source: Expi293F, transfected
In assay [1], B6 gave a Kd of 89.3 nM, a koff of 0.00105 s⁻¹ and a kon of 11700 M⁻¹ s⁻¹. Also, in assay [2], the Kd was 2000 nM, the koff was found to be 0.000202 s⁻¹ and the kon was found to be 101 M⁻¹ s⁻¹.

B7: 0344-MN3_T65I (antibody, V domains shown)
VH: QVQLQQWGPGLVNPSETLSLTCSVSGGSFATENYYWSWIRQHPGEGLEWIGNIYFSGNIYYNPSLNNRFTISFDTSKNHLSLKLPSVTAADTAVYYCARGTIYFDMSGYRRVDPFHIWGQGTMVIVSS
VL: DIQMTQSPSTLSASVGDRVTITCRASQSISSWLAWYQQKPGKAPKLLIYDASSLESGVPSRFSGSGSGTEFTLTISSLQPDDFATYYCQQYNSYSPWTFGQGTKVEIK
notes: source: Expi293F, transfected
For B7, in assay [1], the Kd is 151 nM, the koff was 0.0026 s⁻¹ and the kon stood at 17200 M⁻¹ s⁻¹. In assay [2], this molecule gave a Kd of 1670 nM, a koff of 0.0005 s⁻¹ and a kon of 299 M⁻¹ s⁻¹.

B8: 0378-YN3_T65E (antibody, V domains shown)
VH: QVQLQQWGPGLVNPSETLSLTCSVSGGSFATENYYWSWIRQHPGEGLEWIGNIYFSGNEYYNPSLNNRFTISFDTSKNHLSLKLPSVTAADTAVYYCARGTIYFDYSGYRRVDPFHIWGQGTMVIVSS
VL: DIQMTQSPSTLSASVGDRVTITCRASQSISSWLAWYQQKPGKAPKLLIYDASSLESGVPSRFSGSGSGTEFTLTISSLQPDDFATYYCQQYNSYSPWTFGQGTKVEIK
notes: source: Expi293F, transfected
In the case of B8, in assay [1], binding was characterised by a dissociation constant (Kd) of 1740 nM, the koff is 0.000439 s⁻¹ and the kon turned out to be 253 M⁻¹ s⁻¹. In assay [2], this molecule gave a Kd of 0.186 nM, a koff of 0.000168 s⁻¹ and a kon of 906000 M⁻¹ s⁻¹.

B9: 0386-YN3_T65N (antibody, V domains shown)
VH: QVQLQQWGPGLVNPSETLSLTCSVSGGSFATENYYWSWIRQHPGEGLEWIGNIYFSGNNYYNPSLNNRFTISFDTSKNHLSLKLPSVTAADTAVYYCARGTIYFDYSGYRRVDPFHIWGQGTMVIVSS
VL: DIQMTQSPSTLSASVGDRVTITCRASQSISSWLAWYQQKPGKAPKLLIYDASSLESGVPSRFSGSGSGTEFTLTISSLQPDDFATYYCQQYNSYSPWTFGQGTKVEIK
notes: source: Expi293F, transfected
Consider B9, for which, in assay [1], binding was put at a Kd of 66.3 nM, the koff stood at 0.00052 s⁻¹ and the kon was determined as 7850 M⁻¹ s⁻¹. For the same molecule, in assay [2], the Kd came out at 8.83 nM, the koff amounted to 0.00138 s⁻¹ and the kon is 156000 M⁻¹ s⁻¹.

B10: 0358-N3_T65D (antibody, V domains shown)
VH: QVQLQQWGPGLVNPSETLSLTCSVSGGSFATENYYWSWIRQHPGEGLEWIGNIYFSGNDYYNPSLNNRFTISFDTSKNHLSLKLPSVTAADTAVYYCARGTIYFDRSGYRRVDPFHIWGQGTMVIVSS
VL: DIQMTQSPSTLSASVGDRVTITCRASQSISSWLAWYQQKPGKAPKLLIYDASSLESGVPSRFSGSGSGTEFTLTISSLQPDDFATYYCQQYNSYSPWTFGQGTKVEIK
notes: source: Expi293F, transfected
In assay [1], B10 displayed a Kd of 68.8 nM, a koff of 0.000857 s⁻¹ and an association rate constant (kon) of 12500 M⁻¹ s⁻¹. Moreover, the kon in assay [2] turned out to be 174 M⁻¹ s⁻¹.

B11: 0381-YN3_T65H (antibody, V domains shown)
VH: QVQLQQWGPGLVNPSETLSLTCSVSGGSFATENYYWSWIRQHPGEGLEWIGNIYFSGNHYYNPSLNNRFTISFDTSKNHLSLKLPSVTAADTAVYYCARGTIYFDYSGYRRVDPFHIWGQGTMVIVSS
VL: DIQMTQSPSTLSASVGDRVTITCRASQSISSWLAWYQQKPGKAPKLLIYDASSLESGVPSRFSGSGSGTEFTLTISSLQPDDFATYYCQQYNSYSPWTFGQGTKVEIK
notes: source: Expi293F, transfected
B11: in assay [1], binding was put at a Kd of 8040 nM, the koff worked out at 0.00217 s⁻¹ and the kon amounted to 269 M⁻¹ s⁻¹. In assay [2], the Kd is 663 nM, the koff is 0.00016 s⁻¹ and the kon was 242 M⁻¹ s⁻¹.

B12: 0354-MN3_T65V (antibody, V domains shown)
VH: QVQLQQWGPGLVNPSETLSLTCSVSGGSFATENYYWSWIRQHPGEGLEWIGNIYFSGNVYYNPSLNNRFTISFDTSKNHLSLKLPSVTAADTAVYYCARGTIYFDMSGYRRVDPFHIWGQGTMVIVSS
VL: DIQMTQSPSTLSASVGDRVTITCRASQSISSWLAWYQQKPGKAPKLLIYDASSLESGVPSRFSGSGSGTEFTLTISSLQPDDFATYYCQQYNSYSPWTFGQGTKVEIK
notes: source: Expi293F, transfected
In assay [1], B12 gave a Kd of 67.6 nM, a koff of 0.00153 s⁻¹ and a kon of 22700 M⁻¹ s⁻¹. In assay [2], the Kd turned out to be 292 nM, the koff worked out at 0.00118 s⁻¹ and the kon was found to be 4030 M⁻¹ s⁻¹.

B13: 0363-N3_T65I (antibody, V domains shown)
VH: QVQLQQWGPGLVNPSETLSLTCSVSGGSFATENYYWSWIRQHPGEGLEWIGNIYFSGNIYYNPSLNNRFTISFDTSKNHLSLKLPSVTAADTAVYYCARGTIYFDRSGYRRVDPFHIWGQGTMVIVSS
VL: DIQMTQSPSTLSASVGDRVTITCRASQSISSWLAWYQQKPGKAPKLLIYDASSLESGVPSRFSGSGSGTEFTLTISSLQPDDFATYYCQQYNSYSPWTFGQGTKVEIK
notes: source: Expi293F, transfected
Take B13: in assay [1], binding was characterised by a dissociation constant (Kd) of 1580 nM, the koff came to 0.00106 s⁻¹ and the kon amounted to 673 M⁻¹ s⁻¹. In addition, in assay [2], the Kd turned out to be 71 nM, the koff is 2.3e-05 s⁻¹ and the kon turned out to be 324 M⁻¹ s⁻¹.

B14: 0352-MN3_T65S (antibody, V domains shown)
VH: QVQLQQWGPGLVNPSETLSLTCSVSGGSFATENYYWSWIRQHPGEGLEWIGNIYFSGNSYYNPSLNNRFTISFDTSKNHLSLKLPSVTAADTAVYYCARGTIYFDMSGYRRVDPFHIWGQGTMVIVSS
VL: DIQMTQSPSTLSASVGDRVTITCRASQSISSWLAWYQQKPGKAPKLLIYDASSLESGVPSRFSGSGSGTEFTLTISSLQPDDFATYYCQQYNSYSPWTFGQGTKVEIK
notes: source: Expi293F, transfected
In assay [1], B14 had a Kd of 124 nM, a koff of 0.0017 s⁻¹ and a kon of 13700 M⁻¹ s⁻¹. For the same molecule, in assay [2], the Kd amounted to 6.97 nM, the koff was 0.0014 s⁻¹ and the kon was found to be 201000 M⁻¹ s⁻¹.

B15: 0319-LN3_T65A (antibody, V domains shown)
VH: QVQLQQWGPGLVNPSETLSLTCSVSGGSFATENYYWSWIRQHPGEGLEWIGNIYFSGNAYYNPSLNNRFTISFDTSKNHLSLKLPSVTAADTAVYYCARGTIYFDLSGYRRVDPFHIWGQGTMVIVSS
VL: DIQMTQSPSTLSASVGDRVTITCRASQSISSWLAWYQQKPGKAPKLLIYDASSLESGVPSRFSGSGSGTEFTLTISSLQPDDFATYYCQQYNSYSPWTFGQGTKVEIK
notes: source: Expi293F, transfected
For B15, in assay [1], the Kd was 59.6 nM, the koff came out at 0.00229 s⁻¹ and the kon was 38400 M⁻¹ s⁻¹. In assay [2], the Kd was 244 nM, the koff worked out at 0.000836 s⁻¹ and the kon worked out at 3430 M⁻¹ s⁻¹.

B16: 0346-MN3_T65L (antibody, V domains shown)
VH: QVQLQQWGPGLVNPSETLSLTCSVSGGSFATENYYWSWIRQHPGEGLEWIGNIYFSGNLYYNPSLNNRFTISFDTSKNHLSLKLPSVTAADTAVYYCARGTIYFDMSGYRRVDPFHIWGQGTMVIVSS
VL: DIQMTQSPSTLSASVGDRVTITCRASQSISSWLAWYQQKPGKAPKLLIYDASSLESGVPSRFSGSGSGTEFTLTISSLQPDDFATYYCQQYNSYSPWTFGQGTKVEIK
notes: source: Expi293F, transfected
As for B16, in assay [1], the Kd came to 64.2 nM, the koff came out at 0.00252 s⁻¹ and the kon came to 39200 M⁻¹ s⁻¹. Moreover, in assay [2], binding was put at a Kd of 3320 nM, the koff was 0.000421 s⁻¹ and the kon is 127 M⁻¹ s⁻¹.

B17: 0367-N3_T65N (antibody, V domains shown)
VH: QVQLQQWGPGLVNPSETLSLTCSVSGGSFATENYYWSWIRQHPGEGLEWIGNIYFSGNNYYNPSLNNRFTISFDTSKNHLSLKLPSVTAADTAVYYCARGTIYFDRSGYRRVDPFHIWGQGTMVIVSS
VL: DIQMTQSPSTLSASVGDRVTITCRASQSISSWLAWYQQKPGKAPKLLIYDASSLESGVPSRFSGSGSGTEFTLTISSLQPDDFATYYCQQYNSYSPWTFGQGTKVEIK
notes: source: Expi293F, transfected
Regarding B17, in assay [1], the Kd turned out to be 642 nM, the koff amounted to 0.00176 s⁻¹ and the kon was 2740 M⁻¹ s⁻¹. In assay [2], this molecule gave a Kd of 1.09 nM, a koff of 0.000175 s⁻¹ and a kon of 160000 M⁻¹ s⁻¹.

B18: 0380-YN3_T65G (antibody, V domains shown)
VH: QVQLQQWGPGLVNPSETLSLTCSVSGGSFATENYYWSWIRQHPGEGLEWIGNIYFSGNGYYNPSLNNRFTISFDTSKNHLSLKLPSVTAADTAVYYCARGTIYFDYSGYRRVDPFHIWGQGTMVIVSS
VL: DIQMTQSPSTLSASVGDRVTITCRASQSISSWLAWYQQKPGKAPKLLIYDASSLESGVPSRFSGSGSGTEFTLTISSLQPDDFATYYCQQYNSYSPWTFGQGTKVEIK
notes: source: Expi293F, transfected
In assay [1], B18 returned a Kd of 4980 nM, a koff of 0.00218 s⁻¹ and a kon of 438 M⁻¹ s⁻¹. In assay [2], this molecule registered a Kd of 77.3 nM, a koff of 0.000311 s⁻¹ and a kon of 4020 M⁻¹ s⁻¹.

B19: 0371-N3_T65S (antibody, V domains shown)
VH: QVQLQQWGPGLVNPSETLSLTCSVSGGSFATENYYWSWIRQHPGEGLEWIGNIYFSGNSYYNPSLNNRFTISFDTSKNHLSLKLPSVTAADTAVYYCARGTIYFDRSGYRRVDPFHIWGQGTMVIVSS
VL: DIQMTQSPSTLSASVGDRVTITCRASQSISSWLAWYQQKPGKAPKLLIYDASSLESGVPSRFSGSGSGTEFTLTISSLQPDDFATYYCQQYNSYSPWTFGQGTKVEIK
notes: source: Expi293F, transfected
On to B19, for which, in assay [1], the Kd worked out at 108 nM, the koff stood at 0.00113 s⁻¹ and the kon worked out at 10400 M⁻¹ s⁻¹. Also, in assay [2], the affinity, expressed as Kd, was 592 nM; the koff turned out to be 0.000157 s⁻¹; the kon was found to be 265 M⁻¹ s⁻¹.
